This is an account of results in the supplement of paper PMC6755084.

The data set deals with F1*sub RNA substrate (template-directed ligation). Briefly: fraction ligated after 30 min (ligated reads / total reads); higher = more ligase activity; sequences stand for … in GAGACCGCAACTGAAAAGTTGT…AGTTCTGCACGTAGAAGCAAAAGGC
To be noted: 42 °C. The procedure, abridged: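 Templates from an oligo pool were PCR-amplified, transcribed with T7 and gel-purified to give the ribozyme variants. Ligated and unligated products were separated on gel, reverse transcribed using barcoded primers, and read on a MiSeq. A quality filter of ≥20 was applied to core bases. Fraction ligated was taken as ligated reads as a share of all reads per variant.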
With TTCCTGTCGTAAGACACTTTGGATGGGTTGA [3d298], the fraction ligated came out at 0.746. “TATCCTTGTCTAAGACACTTTGGTGGGTTGA [3d1024]” returned a fraction ligated of 0.19. As to “TATCACTTGTCGTAAGACATTTGATGGTTGA [3d2217]”, the fraction ligated was determined as 0.00686. Next, TATACTTGCGTAAGACACTTTGGATGGGTTGA [2d73]: 0.703. To ATCATTGTCGTAAGCACTTTGGATGGGTTGA [3d94] belongs 0.727. “TATCCTTGTGTAAGAACTTTGGATGGGTTGA [3d1005]” returned a fraction ligated of 0.818. In turn, “TATCACTTGTCGAGACCTTTGGATGGGTTGA [3d1906]” showed a fraction ligated of 0.788. Next, TTCACTTGTCGTAAGACATTGGATGGGTTGA [3d477]: 0.653. Regarding “TATCATTTCGTAAACACTTTGGATGGGTTGA [3d1144]”, the fraction ligated was found to be 0.806. The sequence “TATCACTGCGTAAGCACTTTGGATGGGTTGA [3d1332]” displayed a fraction ligated of 0.826.

For “TATCACTTGTCGAAGAACTTTGGATGGGTTA [3d1941]”, the fraction ligated turned out to be 0.779. “TATCATTGTCTAAGACACTTTGGATGGGTTGA [2d113]” returned a fraction ligated of 0.785. To “TATCACTTGCGAAGACACTTTGGATGGGTTG [3d1625]” belongs 0.824; to ATCACTGTCGTAAGACCTTTGGATGGGTTGA [3d115], 0.726; to TTCACTGTCGTAAGACACTTTGGATGGTTGA [3d352], 0.498. In turn, “TATCCTTGTGTAGACACTTTGGATGGGTTGA [3d1002]” returned a fraction ligated of 0.808.

As to “TATCACTTGTCGTAGACACTTTGATGGGTTA [3d2046]”, the fraction ligated is 0.156. On to “TATCACTGTCGTAAGACACTTTGGATGGTTGA [2d144]”, for which the fraction ligated stood at 0.513. Next, “TATCACTTGTCTAAGACACTTGGATGGTTGA [3d1882]”: 0.12; “TATCACTTGTCGTAAGACACTGGATGGGTTG [3d2237]”: 0.778; ATCACTTGTGAAGACACTTTGGATGGGTTGA [3d157]: 0.815. To “TATCCTTGTCGTAAGACATTTGGAGGGTTGA [3d1093]” belongs 0.0135. For the sequence ATCACTTGTGTAAGACACTTGGATGGGTTGA [3d164], the fraction ligated stood at 0.719.

In turn, “TATCACTTGTCGTAAACCTTTGGATGGGTTGA [2d235]” yielded a fraction ligated of 0.785. In turn, TACACTTGTCTAAGCACTTTGGATGGGTTGA [3d635] returned a fraction ligated of 0.142. To “TATCACTTGCGTAAGACACTTTGGATGGTTA [3d1701]” belongs 0.227; to TTCCTTGTCGTAAGACACTTGGATGGGTTGA [3d310], 0.776. Sequence TTCACTTGTCGTAAGACACTTTGATGGGTTG [3d496] registered a fraction ligated of 0.298. Next, TTCCTTGTCGTAAGACACTTTGGTGGGTTGA [3d312]: 0.204; “TATCACTTTCGTAAGCACTTTGGAGGGTTGA [3d1535]”: 0.03; ATCACTTGTCGTAGACCTTTGGATGGGTTGA [3d202]: 0.767. “TATCACTTGTCGAAGACACTTTGTGGGTTGA [3d1965]” registered a fraction ligated of 0.0368. Next, ATACTTTCGTAAGACACTTTGGATGGGTTGA [3d49]: 0.0977; ATCACTTGTGTAAGAACTTTGGATGGGTTGA [3d161]: 0.88; TATACTTGTCTAAGACATTTGGATGGGTTGA [3d849]: 0.811. Consider “TATCATTGTCGTAAGAACTTTGGAGGGTTGA [3d1251]”, for which the fraction ligated amounted to 0.0299.

ACACTTGTCGTAAGACACTTTGGTGGGTTGA [3d41] gave a fraction ligated of 0.0656. To TACACTTGCGTAAGACACTTTGGATGGGTTA [3d615] belongs 0.013; to “TATCATGTCGTAAGACACTTTGATGGGTTGA [3d1134]”, 0.816. To “TATCACTTGTCGTAAGACCTTGGAGGGTTGA [3d2186]” belongs 0.0676.

For the sequence “TATCACTTGTGAGACACTTTGGATGGGTTGA [3d1718]”, the fraction ligated amounted to 0.841.

As to ATCACTTGTGTAAGCACTTTGGATGGGTTGA [3d160], the fraction ligated came out at 0.854. To TTCACTTGTCGTAACACTTTGGATGGGTTGA [3d430] belongs 0.728; to “TATCACTTGTTAAGCACTTTGGATGGGTTGA [3d1707]”, 0.797. As for ATCACTTGTGTAGACACTTTGGATGGGTTGA [3d158], the fraction ligated came to 0.864.

For “TATCACTTGTCGTAGACTTTGGATGGGTTGA [3d2003]”, the fraction ligated came out at 0.814. As for ATCCTTGTCGTAGACACTTTGGATGGGTTGA [3d73], the fraction ligated was found to be 0.758. Next, “TATCACTTTGTAAGACACTTTGGATGGTTGA [3d1476]”: 0.119. To “TATCACTGTCGTGACACTTTGGATGGGTTGA [3d1385]” belongs 0.854. Next, TATACTTGTCGTAAACACTTGGATGGGTTGA [3d886]: 0.227. With “TATCACTGTCGTAAGCACTTTGGATGGGTTA [3d1416]”, the fraction ligated turned out to be 0.752. In turn, “TATCACTTGTCGTAGACATTTGGTGGGTTGA [3d2030]” came in with a fraction ligated of 0.0449. To “TATCACTTGTCGTAAGACCTTTGGATGGTTG [3d2204]” belongs 0.139. In turn, “TATCACTTGTGTAAACACTTTGGTGGGTTGA [3d1749]” registered a fraction ligated of 0.0929.

With TCCTTGTCGTAAGACACTTTGGATGGGTTGA [3d3], the fraction ligated is 0.687. Consider “TATCACTTGCGTAAGACACTTTGATGGTTGA [3d1691]”, for which the fraction ligated turned out to be 0.1. To “TATCACTTGTCGAAACCTTTGGATGGGTTGA [3d1916]” belongs 0.78; to “TATCACTTGTCGTAGACACTTGGATGGGTTA [3d2040]”, 0.757.

Turning to ATCACTTGTCTAAGACACTTTGGATGGGTTA [3d183], the fraction ligated came to 0.656. Next, ATCACTTGTCGTAAGACACTTTGATGGGTTG [3d265]: 0.518.

In turn, TTCACTTGTGTAAGACACTTTGGATGGGTTG [3d401] yielded a fraction ligated of 0.726. In turn, TTCACTTGTCGTAAGACACTTTGTGGGTTGA [3d492] registered a fraction ligated of 0.0104. In turn, “TATCCTTGTCGTAAGACTTTGGATGGGTTGA [3d1065]” returned a fraction ligated of 0.76.

In turn, TATACTTGTCGTAGACACTTTGGATGGGTTA [3d881] had a fraction ligated of 0.00736.

Regarding “TATCACTTGTCTAGACACTTTGGATGGGTTA [3d1834]”, the fraction ligated was 0.738. Regarding “TATCATTGTCGTAGACACTTTGGAGGGTTGA [3d1223]”, the fraction ligated stood at 0.0919. Next, “TATCACTTGTCAAGACACTTTGGATGGTTGA [3d1820]”: 0.288; “TATCACTTGCGAAGCACTTTGGATGGGTTGA [3d1615]”: 0.817.

In turn, “TATCACTTGTCGTAAGAACTTTGATGGGTTG [3d2171]” registered a fraction ligated of 0.726. Sequence “TATCACTTGGTAAGACACTTTGGTGGGTTGA [3d1594]” came in with a fraction ligated of 0.047. Turning to TATACTTGTCGTAAGAACTTTGGATGGGTTGA [2d80], the fraction ligated is 0.786. Next, “TATCACTTTCGTAGACACTTTGGTGGGTTGA [3d1514]”: 0.0546.

TATCCTGTCGTAAGACACTTTGGTGGGTTGA [3d963] yielded a fraction ligated of 0.274. Next, TACACTTGTCGTAGACATTTGGATGGGTTGA [3d664]: 0.464; “TATCACTTGTCGAAGCACTTTGGATGGGTTA [3d1933]”: 0.723; TCATTGTCGTAAGACACTTTGGATGGGTTGA [3d4]: 0.164.

Take “TATCACTTGTCGTAAGACACTTTGAGGGTTA [3d2265]”: the fraction ligated is 0.0074. To TACCTTGTCGTAAGACACTTGGATGGGTTGA [3d540] belongs 0.746; to “TATCACTTGTCGTAAGACACTTTTGGGTTGA [3d2255]”, 0.0315. Turning to TACTTGTCGTAAGACACTTTGGATGGGTTGA [3d2], the fraction ligated worked out at 0.486.

“TATCACTTTCGTAAGACATTTGGTGGGTTGA [3d1556]” displayed a fraction ligated of 0.284. Next, “TATCACTTTCGAAACACTTTGGATGGGTTGA [3d1494]”: 0.795; TACACTTGTGTAAGACACTTTGGTGGGTTGA [3d627]: 0.134. To “TATCACTTGTCGAGACACTTTGGAGGGTTGA [3d1911]” belongs 0.104. Next, “TATCACTTTGTAAGACACTTTGATGGGTTGA [3d1473]”: 0.793. For ATCACTTGTCGTAGACATTTGGATGGGTTGA [3d203], the fraction ligated was 0.731.

As to TACACTTGTCGTAAGAACTTTGGATGGTTGA [3d697], the fraction ligated was 0.0122. In turn, “TATCACTTGTCGTAAGACCTTGGATGGTTGA [3d2187]” registered a fraction ligated of 0.127. To ATCACTTGTCGTAAGACATTTGGTGGGTTGA [3d248] belongs 0.00393; to TATCCTTGCGTAAGAACTTTGGATGGGTTGA [3d990], 0.832.

The sequence “TATCACTTGTGAAGACACTTTGGATGGGTTA [3d1729]” registered a fraction ligated of 0.823.

Regarding TTCACTTGTCGTAAGCACTTTGGAGGGTTGA [3d458], the fraction ligated worked out at 0.051. In the case of “TATCACTGCGTAAGACACTTTGGATGGGTTA [3d1341]”, the fraction ligated stood at 0.803. In the case of “TATCACTTGTCAAGACACTTTGGATGGGTTA [3d1821]”, the fraction ligated is 0.781. Consider “TATCACTGTCTAAGACCTTTGGATGGGTTGA [3d1363]”, for which the fraction ligated was 0.795. With “TATCACTTGTCGTAGACACTTGGTGGGTTGA [3d2037]”, the fraction ligated stood at 0.105. In the case of “TATCACTTTCGTAGACACTTTGGATGGTTGA [3d1516]”, the fraction ligated stood at 0.0829.

Sequence ATCACTTGTGTAAGACCTTTGGATGGGTTGA [3d162] displayed a fraction ligated of 0.811.
